In assay [1] the target is T1, Ghrelin/GHRP/GHS Receptor (Rattus norvegicus, UniProt O08725). In words: In vitro GH release from cell culture of pituitary cells. Type of assay: cell-based. The arrangement: After dispersion, the cells were collected by centrifugation, wash with DMEM and placed into culture well; endogenous in cells; host or cells: dispersed primary rat anterior pituitary cells. The conditions noted are these: Table 8. As for the experimental part:
In vitro GH Release-Female rats of the CD-1 strain were housed in a constant temperature room at 24° C. with 14 h light and 10 h darkness. The rats were fed Purina Rat chow and water at libitum. All studies were started between 0800-1000 hours. Pituitaries of mature female Sprague Dawley rats were rapidly removed after decapitation, neurointermediate lobe discarded and then placed in a pH 7.4 buffer. The pituitaries were cut into ˜3-mm pieces and then transferred to a flask containing HEPS buffer with trypsin and incubated at 37° C. Cells were triturated several times during this period. After dispersion, the cells were collected by centrifugation, wash with DMEM and placed into culture well. Cell cultures were maintained for 4 days at 37° with 8% CO2 added to the incubator atmosphere. After 4 days in culture, cells were washed with lactated Ringer's solution adjusted to pH 7.2-7.4 and then vehicle, peptide alone or peptide plus stimulator was added to media. Incubation time was 60-120 minutes after which media was removed from each well for GH determination. The GH RIA reagents were distributed by the NIH. Control data was collected from cell cultures treated with only the corresponding vehicle in the absence of peptide or stimulator. Control stimulated data was collected from cell cultures treated with stimulator alone in the absence of any peptide.

The target in assay [2] is T1, Ghrelin/GHRP/GHS Receptor. Kind of assay: In vivo GH release in rat (serum GH by RIA after i.v. peptide). The conditions noted are these: for Unstimulated Basal GH Release from rat: Table 3; for Unstimulated Basal GH release from rats: Table 5. As for the experimental part: For the in vivo assay of GH Release in rat, immature female Sprague Dawley rats were obtained from Charles River from Wilmington, Mass. After arrival they were housed at 25° C. with a 14:10 h light:dark cycle. Water and Purina rat chow were available at libitum. Pups were weaned at 21 days of age.
Immature twenty six day old female Sprague Dawley rats, 3-6 rats per treatment dose, were pretreated with pentobarbital 20 minutes before iv injection of vehicle/peptide or peptide plus stimulator. Injection was made as a 0.1 ml solution. For the non-pentobarbital treated rat assay, peptides were administered iv into the tail vein of conscious rats. All animals were sacrificed by guillotine after iv peptide or vehicle. Trunk blood was collected at +10-15 minutes […], allowed to clot, centrifuged and serum stored until assayed for GH levels by RIA. The GH RIA reagents were distributed by the NIH. Control data was collected from rats treated with only the corresponding vehicle in the absence of peptide or stimulator. Control stimulated data was collected from rats treated with stimulator alone in the absence of any peptide.

The mark [3] stands for this setting: peptide antagonist dosage 3 (head prints μg/i.v.).
[4] abbreviates: peptide antagonist dosage 10 (head prints μg/i.v.).
The mark [5] stands for this setting: peptide antagonist dosage 30 (head prints μg/i.v.).
The mark [6] stands for this setting: peptide antagonist dosage 100 (head prints μg/i.v.).
Where [7] appears, read: peptide antagonist alone 10 μg i.v.

“And” between values parts separate entries of the source, which are not always exact repeats. Equal values may be shown once. Where no end group is shown, it is not given here. [ ]: non-standard residue; d: D form. d2Nal = N[C@H](Cc1ccc2ccccc2c1)C(=O)O; dCha = N[C@H](CC1CCCCC1)C(=O)O; Nle = CCCC[C@H](N)C(=O)O; dPal = not defined here

T1 sequence (O08725 whole entry): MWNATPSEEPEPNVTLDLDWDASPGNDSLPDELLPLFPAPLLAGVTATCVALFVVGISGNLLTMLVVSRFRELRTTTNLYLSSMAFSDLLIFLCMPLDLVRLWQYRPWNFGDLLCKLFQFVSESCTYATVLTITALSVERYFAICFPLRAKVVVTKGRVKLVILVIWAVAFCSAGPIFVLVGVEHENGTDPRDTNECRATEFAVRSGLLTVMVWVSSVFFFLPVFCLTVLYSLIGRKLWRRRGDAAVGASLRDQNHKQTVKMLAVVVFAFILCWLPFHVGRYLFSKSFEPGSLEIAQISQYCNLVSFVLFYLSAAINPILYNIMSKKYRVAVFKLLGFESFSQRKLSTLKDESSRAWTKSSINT

For “Arg-DTrp-Leu-Tyr-Trp-Pro(cyclic Arg-Pro)”, the “Unstimulated Basal GH release from cell cultures of pituitary cells” value in assay [1] (setting [3]) was 1480 ± 19 ng/mL; in assay [1] (setting [4]), 802 ± 26 ng/mL; in assay [1] (setting [5]), 601 ± 16 ng/mL; in assay [1] (setting [6]), 509 ± 49 ng/mL.

As to “Ac-DLys-Tyr-DTrp-DTrp-Phe-NH2 (Ac-[dK]Y[dW][dW]F-NH2; SMILES CC(=O)N[C@H](CCCCN)C(=O)N[C@@H](Cc1ccc(O)cc1)C(=O)N[C@H](Cc1c[nH]c2ccccc12)C(=O)N[C@H](Cc1c[nH]c2ccccc12)C(=O)N[C@@H](Cc1ccccc1)C(N)=O)”, the “Unstimulated Basal GH release from cell cultures of pituitary cells” value in assay [1] (setting [3]) came to 105 ± 8 ng/mL; in assay [1] (setting [4]) it was 950 ± 91 ng/mL; in assay [1] (setting [5]) it was 782 ± 56 ng/mL; in assay [1] (setting [6]), 756 ± 1 ng/mL.

Consider “DPhe-Trp-DPhe-Phe-Met-NH2 ([dF]W[dF]FM-NH2; N-terminus assumed; SMILES CSCC[C@H](NC(=O)[C@H](Cc1ccccc1)NC(=O)[C@@H](Cc1ccccc1)NC(=O)[C@H](Cc1c[nH]c2ccccc12)NC(=O)[C@H](N)Cc1ccccc1)C(N)=O)”, for which the “Unstimulated Basal GH release from cell cultures of pituitary cells” value worked out at 1146 ± 34 ng/mL in assay [1] (setting [3]), 1086 ± 32 ng/mL in assay [1] (setting [4]) and 871 ± 89 ng/mL in assay [1] (setting [5]).

Take “DLys-Tyr-DTrp-DTrp-Phe-NH2 ([dK]Y[dW][dW]F-NH2; N-terminus assumed; SMILES NCCCC[C@@H](N)C(=O)N[C@@H](Cc1ccc(O)cc1)C(=O)N[C@H](Cc1c[nH]c2ccccc12)C(=O)N[C@H](Cc1c[nH]c2ccccc12)C(=O)N[C@@H](Cc1ccccc1)C(N)=O)”: the “Unstimulated Basal GH release from cell cultures of pituitary cells” value in assay [1] (peptide antagonist dosage 1 (head prints μg/i.v.)) worked out at 1451 ± 19 ng/mL; in assay [1] (setting [3]) it was 1175 ± 77 ng/mL; in assay [1] (setting [4]) it was 1129 ± 6 ng/mL; in assay [1] (setting [5]), 744 ± 44 ng/mL.

On to “DPhe-Ala-Phe-DPal-NH2 ([dF]AF[dPal]-NH2; reading uncertain; also: printed as DPhe-Ala-Phe-DPal-NH2)”, for which the “Unstimulated Basal GH release from cell cultures of pituitary cells” value is 170 ± 19 ng/mL in assay [1] (setting [3]), 181 ± 31 ng/mL in assay [1] (setting [4]), 161 ± 20 ng/mL in assay [1] (setting [5]) and 146 ± 21 ng/mL in assay [1] (setting [6]).

As for “DPal-Trp-DPhe-Phe-Met-NH2 ([dPal]W[dF]FM-NH2; reading uncertain; also: printed as DPal-Trp-DPhe-Phe-Met-NH2)”, the “Unstimulated Basal GH release from cell cultures of pituitary cells” value turned out to be 1105 ± 18 ng/mL in assay [1] (setting [3]), 891 ± 4 ng/mL in assay [1] (setting [4]) and 567 ± 24 ng/mL in assay [1] (setting [5]).

As for “DAla-DcyclohexylAla-Ala-Phe-DPhe-Nle-NH2 ([dA][dCha]AF[dF][Nle]-NH2; N-terminus assumed; SMILES CCCC[C@H](NC(=O)[C@@H](Cc1ccccc1)NC(=O)[C@H](Cc1ccccc1)NC(=O)[C@H](C)NC(=O)[C@@H](CC1CCCCC1)NC(=O)[C@@H](C)N)C(N)=O)”, the “Unstimulated Basal GH Release from rat” value amounted to 435 ± 152 ng/mL in assay [2] (peptide alone 1 μg i.v.); 195 ± 34 ng/mL in assay [2] (peptide alone 3 μg i.v.); 250 ± 41 ng/mL in assay [2] (peptide alone 10 μg i.v.); 393 ± 51 ng/mL in assay [2] (peptide alone 30 μg i.v.); 697 ± 75 ng/mL in assay [2] (peptide alone 100 μg i.v.).

On to “DAla-Ala-DAla-DTrp-Phe-Lys-NH2 ([dA]A[dA][dW]FK-NH2; N-terminus assumed; SMILES C[C@H](NC(=O)[C@@H](C)N)C(=O)N[C@H](C)C(=O)N[C@H](Cc1c[nH]c2ccccc12)C(=O)N[C@@H](Cc1ccccc1)C(=O)N[C@@H](CCCCN)C(N)=O)”, for which the “Unstimulated Basal GH release from rats” value in assay [2] (setting [7]) was found to be 228 ± 76 ng/mL; in assay [2] (peptide antagonist alone 30 μg i.v.), 172 ± 14 ng/mL; in assay [2] (peptide antagonist alone 100 μg i.v.), 153 ± 45 ng/mL.

Regarding “DAla-DβNal-DAla-DTrp-Phe-Lys-NH2 ([dA][d2Nal][dA][dW]FK-NH2)”, the “Unstimulated Basal GH Release from rat” value stood at 184 ± 55 ng/mL in assay [2] (peptide alone 1 μg i.v.), 467 ± 201 ng/mL in assay [2] (peptide alone 3 μg i.v.) and 244 ± 107 ng/mL in assay [2] (peptide alone 10 μg i.v.).

Take “His-Trp-DAla-DTrp-Phe-LysNH2 (HW[dA][dW]FK-NH2)”: the figures for the “Unstimulated Basal GH Release from rat” value in assay [2] (peptide alone 1 μg i.v.), in assay [2] (peptide alone 3 μg i.v.) and in assay [2] (peptide alone 10 μg i.v.) were 204 ± 44 ng/mL, 127 ± 44 ng/mL and 83 ± 5 ng/mL, respectively.

Consider “DAla-DβNal-Ala-Thr-DThr-Lys-NH2 ([dA][d2Nal]AT[dT]K-NH2; N-terminus assumed; SMILES C[C@H](NC(=O)[C@@H](Cc1ccc2ccccc2c1)NC(=O)[C@@H](C)N)C(=O)N[C@H](C(=O)N[C@@H](C(=O)N[C@@H](CCCCN)C(N)=O)[C@H](C)O)[C@@H](C)O)”, for which the entries for the “Unstimulated Basal GH Release from rat” value in assay [2] (peptide alone 3 μg i.v.), in assay [2] (peptide alone 30 μg i.v.) and in assay [2] (peptide alone 100 μg i.v.) were 255 ± 38 ng/mL, 288 ± 31 ng/mL and 386 ± 57 ng/mL, respectively.

With “His-DTrp-Phe-Trp-DPhe-Lys-NH2 (H[dW]FW[dF]K-NH2; N-terminus assumed; SMILES NCCCC[C@H](NC(=O)[C@@H](Cc1ccccc1)NC(=O)[C@H](Cc1c[nH]c2ccccc12)NC(=O)[C@H](Cc1ccccc1)NC(=O)[C@@H](Cc1c[nH]c2ccccc12)NC(=O)[C@@H](N)Cc1c[nH]cn1)C(N)=O)”, the “Unstimulated Basal GH Release from rat” value turned out to be 67 ± 14 ng/mL in assay [2] (peptide alone 1 μg i.v.), 141 ± 53 ng/mL in assay [2] (peptide alone 3 μg i.v.), 197 ± 70 ng/mL in assay [2] (peptide alone 10 μg i.v.) and 509 ± 48 ng/mL in assay [2] (peptide alone 30 μg i.v.).

In the case of “Lys-DHis-DTrp-Phe-NH2 (K[dH][dW]F-NH2; N-terminus assumed; SMILES NCCCC[C@H](N)C(=O)N[C@H](Cc1c[nH]cn1)C(=O)N[C@H](Cc1c[nH]c2ccccc12)C(=O)N[C@@H](Cc1ccccc1)C(N)=O)”, the “Unstimulated Basal GH release from rats” value in assay [2] (setting [7]) was 121 ± 24 ng/mL.

As to “DAla-DβNal-Ala-Trp-DPhe-Lys-NH2 ([dA][d2Nal]AW[dF]K-NH2) [reference compound]”, the “Stimulated Control 0.3 μg, GH release from rat” value in assay [2] (Table 2, stimulator DAla-DβNal-Ala-Trp-DPhe-Lys-NH2 alone, 0.3 μg) was 2253 ± 252 ng/mL and 1412 ± 400 ng/mL. For the same substance, in assay [2] (Table 2, stimulator DAla-DβNal-Ala-Trp-DPhe-Lys-NH2 alone, 1 μg), the “Stimulated Control 1 μg, GH release from rat” value is 3214 ± 276 ng/mL and 3105 ± 429 ng/mL and 2406 ± 288 ng/mL and 2825 ± 134 ng/mL and 3104 ± 429 ng/mL.

Turning to “DcyclohexylAla-Ala-Phe-DTrp-Lys-NH2 ([dCha]AF[dW]K-NH2; N-terminus assumed; SMILES C[C@H](NC(=O)[C@H](N)CC1CCCCC1)C(=O)N[C@@H](Cc1ccccc1)C(=O)N[C@H](Cc1c[nH]c2ccccc12)C(=O)N[C@@H](CCCCN)C(N)=O)”, the “Unstimulated Basal GH Release from rat” value in assay [2] (peptide alone 1 μg i.v.) was 199 ± 63 ng/mL; in assay [2] (peptide alone 3 μg i.v.), 266 ± 68 ng/mL; in assay [2] (peptide alone 10 μg i.v.) it was 199 ± 23 ng/mL; in assay [2] (peptide alone 30 μg i.v.), 346 ± 82 ng/mL; in assay [2] (peptide alone 100 μg i.v.), 350 ± 61 ng/mL.

As for “DβNal-Ala-Trp-DPhe-Leu-NH2 ([d2Nal]AW[dF]L-NH2; N-terminus assumed; SMILES CC(C)C[C@H](NC(=O)[C@@H](Cc1ccccc1)NC(=O)[C@H](Cc1c[nH]c2ccccc12)NC(=O)[C@H](C)NC(=O)[C@H](N)Cc1ccc2ccccc2c1)C(N)=O)”, the “Unstimulated Basal GH Release from rat” value in assay [2] (peptide alone 3 μg i.v.) came to 253 ± 79 ng/mL; in assay [2] (peptide alone 10 μg i.v.) it was 277 ± 43 ng/mL; in assay [2] (peptide alone 30 μg i.v.), 347 ± 66 ng/mL; in assay [2] (peptide alone 100 μg i.v.), 645 ± 117 ng/mL.

These data come from patent publication US9724381B2 (THE ADMINISTRATORS OF THE TULANE EDUCATIONAL FUND, priority 2009, dated 2017).
